Source: article PMC5692602

Biological target: ^15N-labeled intersectin 1-SH3A domain (UniProt Q15811)
Experiment: NMR titration

UniProt Q15811, sequence (Q15811 740-806): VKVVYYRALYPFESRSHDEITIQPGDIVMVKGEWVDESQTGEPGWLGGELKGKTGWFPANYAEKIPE

Kd	Substance
793 µM	SH3A–B interdomain linker-derived peptide of intersectin 1, T832 and T839 phosphorylated
275 µM	SH3A–B interdomain linker-derived peptide of intersectin 1, dephosphorylated
